Results from publication PMC9375587 (2022).

Target: Thrombin (Homo sapiens, UniProt P00734)
Test: solid-phase binding assay

Kd: 101 nM
B1: Myeloperoxidase (protein)
chain: not shown
